Experimental data as given in US20230002460A1 (YUHAN, published 2023).
Like-named read-outs stand apart in the source and are kept apart here.

What was measured:
[1] = biological target: T1, GDF15 receptors GFRAL and RET, overexpressed together on HEK293 cells (UniProt Q6UXV0 19-394; P07949 29-1114, limits assumed); test: cell-based or functional assay
[2] = biological target: T1, GDF15 receptors GFRAL and RET, …; test: cell-based or functional assay; remark: listed apart in the source

T1 sequence (Q6UXV0 19-394 limits assumed, chain 1 of 2): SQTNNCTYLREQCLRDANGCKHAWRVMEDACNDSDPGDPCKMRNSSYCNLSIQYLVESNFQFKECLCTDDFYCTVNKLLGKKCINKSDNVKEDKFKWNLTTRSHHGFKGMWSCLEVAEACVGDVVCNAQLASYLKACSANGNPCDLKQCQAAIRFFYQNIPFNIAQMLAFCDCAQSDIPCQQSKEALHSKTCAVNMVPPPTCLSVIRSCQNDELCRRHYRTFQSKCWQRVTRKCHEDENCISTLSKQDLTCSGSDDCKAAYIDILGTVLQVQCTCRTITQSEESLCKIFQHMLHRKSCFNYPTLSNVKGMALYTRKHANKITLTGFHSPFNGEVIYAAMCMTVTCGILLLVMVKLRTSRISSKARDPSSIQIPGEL
T1 sequence (P07949 29-1114 limits assumed, chain 2 of 2): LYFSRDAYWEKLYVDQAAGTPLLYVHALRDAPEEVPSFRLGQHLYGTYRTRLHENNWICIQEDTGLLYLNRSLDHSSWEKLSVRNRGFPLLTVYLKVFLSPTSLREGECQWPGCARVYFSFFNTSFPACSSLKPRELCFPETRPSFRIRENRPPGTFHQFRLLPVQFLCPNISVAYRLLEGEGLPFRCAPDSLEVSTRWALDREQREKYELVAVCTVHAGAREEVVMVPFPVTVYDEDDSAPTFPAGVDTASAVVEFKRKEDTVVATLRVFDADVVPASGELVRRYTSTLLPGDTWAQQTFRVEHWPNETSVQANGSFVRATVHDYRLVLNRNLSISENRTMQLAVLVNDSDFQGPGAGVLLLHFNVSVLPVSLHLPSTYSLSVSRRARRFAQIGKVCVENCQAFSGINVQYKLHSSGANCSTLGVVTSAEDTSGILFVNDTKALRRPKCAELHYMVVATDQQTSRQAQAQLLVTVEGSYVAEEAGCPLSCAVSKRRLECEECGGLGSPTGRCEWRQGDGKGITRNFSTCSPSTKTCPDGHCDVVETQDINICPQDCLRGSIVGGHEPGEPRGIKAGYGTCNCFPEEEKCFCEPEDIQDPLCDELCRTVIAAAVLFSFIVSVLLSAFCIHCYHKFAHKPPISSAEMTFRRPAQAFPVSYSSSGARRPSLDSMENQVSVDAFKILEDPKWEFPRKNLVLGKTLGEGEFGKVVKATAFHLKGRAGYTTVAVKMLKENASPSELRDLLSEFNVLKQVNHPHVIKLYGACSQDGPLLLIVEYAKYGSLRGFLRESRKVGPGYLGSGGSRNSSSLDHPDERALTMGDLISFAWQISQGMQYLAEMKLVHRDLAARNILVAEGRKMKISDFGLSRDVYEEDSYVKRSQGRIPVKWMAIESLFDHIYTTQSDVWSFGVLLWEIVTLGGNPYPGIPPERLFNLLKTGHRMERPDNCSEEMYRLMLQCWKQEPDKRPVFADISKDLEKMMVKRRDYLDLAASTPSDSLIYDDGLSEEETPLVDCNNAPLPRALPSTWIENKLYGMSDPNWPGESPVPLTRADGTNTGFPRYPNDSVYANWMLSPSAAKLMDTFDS

Row | Binder | EC50 [1] [nM] | Emax (%) [1] [%] | EC50 [2] [nM] | Emax (%) [2] [%]
1 | long-acting GDF15 fusion protein (dimer) FM9-2 + Fc_hole (ΔN2, S64R; linker GS(G4S)5) (Fc fusion) chain 1: APEAAGGPSVFLFPPKPKDTLMISRTPEVTCVVVDVSHEDPEVKFNWYVDGVEVHNAKTKPREEQYASTYRVVSVLTVLHQDWLNGKEYKCKVSNKALPAPIEKTISKAKGQPREPQVYTLPPSREEMTKNQVSLWCLVKGFYPSDIAVEWESNGQPENNYKTTPPVLDSDGSFFLYSKLTVDKSRWQQGNVFSCSVMHEALHNHYTQKSLSLSPGKGSGGGGSGGGGSGGGGSGGGGSGGGGSNGDHCPLGPGRCCRLHTVRASLEDLGWADWVLSPREVQVTMCIGACPSQFRAANMHAQIKTRLHRLKPDTVPAPCCVPASYNPMVLIQKTDTGVSLQTYDDLLAKDCHCI chain 2: APEAAGGPSVFLFPPKPKDTLMISRTPEVTCVVVDVSHEDPEVKFNWYVDGVEVHNAKTKPREEQYASTYRVVSVLTVLHQDWLNGKEYKCKVSNKALPAPIEKTISKAKGQPREPQVYTLPPSREEMTKNQVSLSCAVKGFYPSDIAVEWESNGQPENNYKTTPPVLDSDGSFFLVSKLTVDKSRWQQGNVFSCSVMHEALHNHYTQKSLSLSPGK | – | – | 9.5 | 111
2 | long-acting GDF15 fusion protein (dimer) FM9-6 + Fc_hole (ΔN2, S64R; linker GS(EAAAK)5) (Fc fusion) chain 1: APEAAGGPSVFLFPPKPKDTLMISRTPEVTCVVVDVSHEDPEVKFNWYVDGVEVHNAKTKPREEQYASTYRVVSVLTVLHQDWLNGKEYKCKVSNKALPAPIEKTISKAKGQPREPQVYTLPPSREEMTKNQVSLWCLVKGFYPSDIAVEWESNGQPENNYKTTPPVLDSDGSFFLYSKLTVDKSRWQQGNVFSCSVMHEALHNHYTQKSLSLSPGKGSEAAAKEAAAKEAAAKEAAAKEAAAKNGDHCPLGPGRCCRLHTVRASLEDLGWADWVLSPREVQVTMCIGACPSQFRAANMHAQIKTRLHRLKPDTVPAPCCVPASYNPMVLIQKTDTGVSLQTYDDLLAKDCHCI chain 2: APEAAGGPSVFLFPPKPKDTLMISRTPEVTCVVVDVSHEDPEVKFNWYVDGVEVHNAKTKPREEQYASTYRVVSVLTVLHQDWLNGKEYKCKVSNKALPAPIEKTISKAKGQPREPQVYTLPPSREEMTKNQVSLSCAVKGFYPSDIAVEWESNGQPENNYKTTPPVLDSDGSFFLVSKLTVDKSRWQQGNVFSCSVMHEALHNHYTQKSLSLSPGK | – | – | 6.3 | 100
3 | long-acting GDF15 fusion protein (dimer) FM9-5 + Fc_hole (ΔN2, S64R; linker GSGGSS(PT)10) (Fc fusion) chain 1: APEAAGGPSVFLFPPKPKDTLMISRTPEVTCVVVDVSHEDPEVKFNWYVDGVEVHNAKTKPREEQYASTYRVVSVLTVLHQDWLNGKEYKCKVSNKALPAPIEKTISKAKGQPREPQVYTLPPSREEMTKNQVSLWCLVKGFYPSDIAVEWESNGQPENNYKTTPPVLDSDGSFFLYSKLTVDKSRWQQGNVFSCSVMHEALHNHYTQKSLSLSPGKGSGGSSPTPTPTPTPTPTPTPTPTPTNGDHCPLGPGRCCRLHTVRASLEDLGWADWVLSPREVQVTMCIGACPSQFRAANMHAQIKTRLHRLKPDTVPAPCCVPASYNPMVLIQKTDTGVSLQTYDDLLAKDCHCI chain 2: APEAAGGPSVFLFPPKPKDTLMISRTPEVTCVVVDVSHEDPEVKFNWYVDGVEVHNAKTKPREEQYASTYRVVSVLTVLHQDWLNGKEYKCKVSNKALPAPIEKTISKAKGQPREPQVYTLPPSREEMTKNQVSLSCAVKGFYPSDIAVEWESNGQPENNYKTTPPVLDSDGSFFLVSKLTVDKSRWQQGNVFSCSVMHEALHNHYTQKSLSLSPGK | – | – | 5.3 | 100
4 | long-acting GDF15 fusion protein (dimer) FM9-4 + Fc_hole (ΔN2, S64R; linker GS(EEEA)6) (Fc fusion) chain 1: APEAAGGPSVFLFPPKPKDTLMISRTPEVTCVVVDVSHEDPEVKFNWYVDGVEVHNAKTKPREEQYASTYRVVSVLTVLHQDWLNGKEYKCKVSNKALPAPIEKTISKAKGQPREPQVYTLPPSREEMTKNQVSLWCLVKGFYPSDIAVEWESNGQPENNYKTTPPVLDSDGSFFLYSKLTVDKSRWQQGNVFSCSVMHEALHNHYTQKSLSLSPGKGSEEEAEEEAEEEAEEEAEEEAEEEANGDHCPLGPGRCCRLHTVRASLEDLGWADWVLSPREVQVTMCIGACPSQFRAANMHAQIKTRLHRLKPDTVPAPCCVPASYNPMVLIQKTDTGVSLQTYDDLLAKDCHCI chain 2: APEAAGGPSVFLFPPKPKDTLMISRTPEVTCVVVDVSHEDPEVKFNWYVDGVEVHNAKTKPREEQYASTYRVVSVLTVLHQDWLNGKEYKCKVSNKALPAPIEKTISKAKGQPREPQVYTLPPSREEMTKNQVSLSCAVKGFYPSDIAVEWESNGQPENNYKTTPPVLDSDGSFFLVSKLTVDKSRWQQGNVFSCSVMHEALHNHYTQKSLSLSPGK | – | – | 23.6 | 128
5 | long-acting GDF15 fusion protein (dimer) FM9-3 + Fc_hole (ΔN2, S64R; linker GS(G4S)7) (Fc fusion) chain 1: APEAAGGPSVFLFPPKPKDTLMISRTPEVTCVVVDVSHEDPEVKFNWYVDGVEVHNAKTKPREEQYASTYRVVSVLTVLHQDWLNGKEYKCKVSNKALPAPIEKTISKAKGQPREPQVYTLPPSREEMTKNQVSLWCLVKGFYPSDIAVEWESNGQPENNYKTTPPVLDSDGSFFLYSKLTVDKSRWQQGNVFSCSVMHEALHNHYTQKSLSLSPGKGSGGGGSGGGGSGGGGSGGGGSGGGGSGGGGSGGGGSNGDHCPLGPGRCCRLHTVRASLEDLGWADWVLSPREVQVTMCIGACPSQFRAANMHAQIKTRLHRLKPDTVPAPCCVPASYNPMVLIQKTDTGVSLQTYDDLLAKDCHCI chain 2: APEAAGGPSVFLFPPKPKDTLMISRTPEVTCVVVDVSHEDPEVKFNWYVDGVEVHNAKTKPREEQYASTYRVVSVLTVLHQDWLNGKEYKCKVSNKALPAPIEKTISKAKGQPREPQVYTLPPSREEMTKNQVSLSCAVKGFYPSDIAVEWESNGQPENNYKTTPPVLDSDGSFFLVSKLTVDKSRWQQGNVFSCSVMHEALHNHYTQKSLSLSPGK | – | – | 9.3 | 95.6

The remaining lines, values ahead:

Row | EC50 [1] [nM] | Emax (%) [1] [%] | EC50 [2] [nM] | Emax (%) [2] [%] | Binder
6 | 3.3 | 100 | – | – | long-acting GDF15 fusion protein (dimer) FM3 + Fc_hole (ΔN2, R21N) (Fc fusion) chain 1: APALAGGPSVFLFPPKPKDTLMISRTPEVTCVVVDVSHEDPEVKFNWYVDGVEVHNAKTKPREEQYNSTYRVVSVLTVLHQDWLNGKEYKCKVSNKALPAPIEKTISKAKGQPREPQVYTLPPSREEMTKNQVSLWCLVKGFYPSDIAVEWESNGQPENNYKTTPPVLDSDGSFFLYSKLTVDKSRWQQGNVFSCSVMHEALHNHYTQKSLSLSPGKGGGGSGGGGSGGGGSGGGGSGGGGSNGDHCPLGPGRCCRLHTVNASLEDLGWADWVLSPREVQVTMCIGACPSQFRAANMHAQIKTSLHRLKPDTVPAPCCVPASYNPMVLIQKTDTGVSLQTYDDLLAKDCHCI chain 2: not shown
7 | 1.7 | 100 | – | – | long-acting GDF15 fusion protein (dimer) FM1 + Fc_hole (ΔN3, WS insertion, G4N, D5S, H6T) (Fc fusion) chain 1: APALAGGPSVFLFPPKPKDTLMISRTPEVTCVVVDVSHEDPEVKFNWYVDGVEVHNAKTKPREEQYNSTYRVVSVLTVLHQDWLNGKEYKCKVSNKALPAPIEKTISKAKGQPREPQVYTLPPSREEMTKNQVSLWCLVKGFYPSDIAVEWESNGQPENNYKTTPPVLDSDGSFFLYSKLTVDKSRWQQGNVFSCSVMHEALHNHYTQKSLSLSPGKGGGGSGGGGSGGGGSGGGGSGGGGSWSNSTCPLGPGRCCRLHTVRASLEDLGWADWVLSPREVQVTMCIGACPSQFRAANMHAQIKTSLHRLKPDTVPAPCCVPASYNPMVLIQKTDTGVSLQTYDDLLAKDCHCI chain 2: not shown
8 | 3.9 | 100 | – | – | long-acting GDF15 fusion protein (dimer) FM2 + Fc_hole (ΔN3, G4N, D5S, H6T) (Fc fusion) chain 1: APALAGGPSVFLFPPKPKDTLMISRTPEVTCVVVDVSHEDPEVKFNWYVDGVEVHNAKTKPREEQYNSTYRVVSVLTVLHQDWLNGKEYKCKVSNKALPAPIEKTISKAKGQPREPQVYTLPPSREEMTKNQVSLWCLVKGFYPSDIAVEWESNGQPENNYKTTPPVLDSDGSFFLYSKLTVDKSRWQQGNVFSCSVMHEALHNHYTQKSLSLSPGKGGGGSGGGGSGGGGSGGGGSGGGGSNSTCPLGPGRCCRLHTVRASLEDLGWADWVLSPREVQVTMCIGACPSQFRAANMHAQIKTSLHRLKPDTVPAPCCVPASYNPMVLIQKTDTGVSLQTYDDLLAKDCHCI chain 2: not shown
